Data set [1] deals with T1, RecA (Thermotoga maritima, UniProt P36203 P36203:1-356).
T1 sequence: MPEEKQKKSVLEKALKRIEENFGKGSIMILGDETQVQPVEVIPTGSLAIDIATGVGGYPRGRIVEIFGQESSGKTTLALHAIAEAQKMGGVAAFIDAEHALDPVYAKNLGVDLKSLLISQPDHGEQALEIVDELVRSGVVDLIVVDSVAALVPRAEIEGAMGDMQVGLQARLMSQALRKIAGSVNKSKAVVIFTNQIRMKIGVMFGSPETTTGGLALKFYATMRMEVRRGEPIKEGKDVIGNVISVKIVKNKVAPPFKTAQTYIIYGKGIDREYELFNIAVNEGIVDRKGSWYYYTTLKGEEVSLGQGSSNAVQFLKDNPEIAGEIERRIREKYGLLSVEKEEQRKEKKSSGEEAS
Nature of the data set: EMSA; 75 C, 2 mM Mg acetate; slower assembly than 91-mer; more efficient than E. coli RecA. Conditions: tags: untagged; expressed in E. coli; label: 5' fluorescein. As for the experimental part:
To detect recombinase coating of a substrate (nucleoprotein assembly), a gel shift assay with a labeled ssDNA may be employed. For example, 0.1 μM of a fluorescein-tagged 91-mer oligonucleotide (F-[…] […] GAT; SEQ ID NO: 1) was used as a substrate for coating by RecA. The coating buffer for E. coli RecA was 25 mM Tris acetate, pH 7.85, 15 mM potassium glutamate (K-Glu), 5 mM Mg acetate, and 2.5 mM DTT. The coating buffer for Thermotoga RecA was 25 mM Tris acetate, pH 8.0, 15 mM K-Glu, 2 mM Mg acetate, 2.5 mM DTT and 0.1% Triton. The coating buffer also included ATPyS (3 mM), or dATP and ATPγS at a ratio of 10:1 (3 mM and 0.3 mM, respectively). RecA was then added to the coating buffer containing the substrate at a ratio of 4 μM RecA for 10 μM of base. The E. coli RecA coating reaction was incubated for up to 60 minutes at 42° C. and the Thermotoga RecA coating reaction was incubated for up to 60 minutes at 75° C. (or 65° C.), although other temperatures may be employed. The tagged oligonucleotide was visualized and quantified using a FluorImager-SI and ImageQuant Software. […]
On the technique in general: Mobility shift assays separate free from complexed probe on a gel.

The target in data set [2] is T1, RecA. In words: EMSA; nucleoprotein assembly; 75 C, 2 mM Mg acetate, ATPgammaS or dATP/ATPgammaS; more efficient than E. coli RecA. The note with it: tags: untagged; expressed in E. coli; label: 5' fluorescein. As for the experimental part:
To detect recombinase coating of a substrate (nucleoprotein assembly), a gel shift assay with a labeled ssDNA may be employed. For example, 0.1 μM of a fluorescein-tagged 91-mer oligonucleotide (F-[…] […] GAT; SEQ ID NO: 1) was used as a substrate for coating by RecA. The coating buffer for E. coli RecA was 25 mM Tris acetate, pH 7.85, 15 mM potassium glutamate (K-Glu), 5 mM Mg acetate, and 2.5 mM DTT. The coating buffer for Thermotoga RecA was 25 mM Tris acetate, pH 8.0, 15 mM K-Glu, 2 mM Mg acetate, 2.5 mM DTT and 0.1% Triton. The coating buffer also included ATPyS (3 mM), or dATP and ATPγS at a ratio of 10:1 (3 mM and 0.3 mM, respectively). RecA was then added to the coating buffer containing the substrate at a ratio of 4 μM RecA for 10 μM of base. The E. coli RecA coating reaction was incubated for up to 60 minutes at 42° C. and the Thermotoga RecA coating reaction was incubated for up to 60 minutes at 75° C. (or 65° C.), although other temperatures may be employed. The tagged oligonucleotide was visualized and quantified using a FluorImager-SI and ImageQuant Software.

Turning to GCTGATTGGCGTTGCCTAATCCAGTCTGGCCCTGC (ssDNA, [5'-F label (position 1)]) [35-mer], the binding result with RecA [1] is “binds”.

B1: 51-mer (ssDNA)
DNA: CAGTCGTTGCTGATTGGCGTTGCCTAATCCAGTCTGGCCCTGCACGCGCCG
modifications: [5'-F label (position 1)]
Take B1: in the data set with RecA [1], the binding result is “binds”.

B2: 91-mer (ssDNA)
DNA: ACAACAACTGGCGGGCAAACAGTCGTTGCTGATTGGCGTTGCCTAATCCAGTCTGGCCCTGCACGCGCCGTCGCAAATTGTCGCGGCGAT
modifications: [1 (5'-fluorescein)]
Consider B2, for which the binding result in the data set with RecA [2] is listed as “binds”.

Source of the values: patent US20030228608, “Method to enhance homologous recombination” (Promega Corporation, published 2003).
